Data reported in the nanobody polyreactivity screen of Harvey et al. (2022).

Assay: yeast display, Sf9 membrane polyspecificity reagent, FACS + sequencing; frameworks hold sequencing errors
Summary of the method: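 Sorting gates, low and high (top ~1%), were placed on anti-HA fluorescence to track expression and on streptavidin fluorescence to track reagent binding. A clone's polyreactivity label is taken from the gate it came out of. The reagent was 10% biotinylated, detergent-solubilized Sf9 membrane, applied for 1 hour at 4 °C to galactose-induced yeast display cells.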

Row | Sequence | polyreactivity (PSR sort gate)
1 | QVQLVDSGGGLVQAGGSLRLSCAASGITFYRYTMGWYRQGPGKERELVATITSGASTSYADSVKGRFTISRDNAKNTVYLQMNCLKPEDTAVYYCAARRTRVTGRYSVYAFDYWGQGTQVTVSS | low polyreactivity
2 | QVQLVDSGGGLVQAGGSLRLSCAASGLIIWRNAMGWYRQAPGKERELVAAITYSGSRTYYADSVKGRFTISRDNAKNTVYLLMNSLKPEDTAVYYCNADYYWYPYEDDNWGQGTQVTVSS | low polyreactivity
3 | QVQLVDSGGGLVQAGGSLRLSCAASGLIVFYAMGWYRQAPGKERELVAGISSGGNTNYADSVKGRFTISRDNAKNTFYLQMNSMKPQDTSVYYCAAVYLLSSYDFWGQGTQVTVSS | high polyreactivity
4 | QVQLVDSGGGLVQAGGSLRLSCAASGLTCRKYTMGWYRQAPGKERELVAAISFRGGSTYYADSVKGRFTISRDNAKNTVYLQMNSLKPEDTAVYYCNARKRYSTDPGDYWGQGTQVTVSS | high polyreactivity
5 | QVQLVDSGGGLVQAGGSLRLSCAASGLTITVYVMGWYRQAPGKERELVAAIDWSGGSTYYADSVKGRFTISRDNAKNTVYLQMNSLKPEDTAVYYCASETTDYAYYGFTYDYWGQGTQVTVSS | low polyreactivity
6 | QVQLVDSGGGLVQAGGSLRLSCAASGRIFFANAMGWYRQAPGKERELVAAISWRGGSTYYADSVKGRFTISRDNAKNTVYLQKNSLKPEDTAVYYCAATSRGTDYWGQGTQVTLSS | high polyreactivity
7 | QVQLVDSGGGLVQAGGSLRLSCAASGRIFIVNPMGRYRQAPGKEREFVAAITSRGGITYYADSVKGRFTISRDNAKNTVYLQMNTLKPEDTAVYYFAAGYISWGSGNWGVTPYDYWGQGTQVTVSS | high polyreactivity
8 | QVQLVDSGGGLVQAGGSLRLSCAASGRIFPWYAMGWYRQAPGKEMELVAAINWRAGLTYYADSVKGRFTISRDYAKNTVYLQMNSLKPEDTAVYYCNARSGRGQAYGYWGQGTQVSVSS | high polyreactivity
9 | QVQLVDSGGGLVQAGGSLRLSCAASGRIFRDNCMVCYRQAPGKERELVAAIRRSGGSTYYADSVKGRFTISRDNAKNSVYLQMNSLIPEDTAVYYCATPPYPGREYWGQGSQVTVSS | high polyreactivity
10 | QVQLVDSGGGLVQAGGSLRLSCAASGRIFYPYAMGWYREATGKERELVAAMTRRTASTYYADSVKGRFTISRDNAKNTVYLQMNSLKPQDTAVYYCAAVSYLKRPYYAGYYYWGQGTQVTVSS | high polyreactivity
11 | QVQLVDSGGGLVQAGGSLRLSCAASGRNFLWNAMGWDRQAPGKERELVAGISWRGSSTYYAVSVKGRFTISRDNAKNTVYLQMNSLKPEDTAVYYCAAQGRPYRGQRTGAYGYWGQGTQVTVSS | high polyreactivity
12 | QVQLVDSGGGLVQAGGSLRLSCAASGRTFGYYAMGWYRQAPGKERELVAAISGSGGSTYYADSVKGRFTISRDNAKNTVYLQMNSLIPEDTAVYYCIVYPPYAMDYWGQGTQVTVSS | high polyreactivity
13 | QVQLVDSGGGLVQAGGSLRLSCAASGRTFTQNAKGWYRPAPGKERELVAAIRRGGSTNYADSVKWRFTISRDNAKNTVYLQMKSLKPEDTAVYYCATECYYGFSYRYDFWGLGTQVTVSS | high polyreactivity
14 | QVQLVDSGGGLVQAGGSLRLSCAASGRTFTRNAMGWYRPATRQERELLAAISFTGGRTYYADSVKGRFTISRDNAKNTVYLQMNSLNPEDTAVYYCNTTSRRSQVGYSTRYDYWGQGTQVTVSS | high polyreactivity
15 | QVQLVDSGGGLVQAGGSLRLSCAASGRTFTYYAMGWYRQAPGKERELVASISTTGRTYYADSVKGRFTITRDNAKNTVYLQMNSLKREDTAVYYCNASRVRRWNDYYKKFDYWGQGTQVTVSS | high polyreactivity
16 | QVQLVDSGGGLVQAGGSLRLSCAASGRTFWQYAMGWYRQAPGKERELVAAISRSGGSTYYADSVKGRFTISRDNAQNTVSLQMNSLKPEDTAVYYCAAYYLGYNYDYWGQGTQVTVSS | high polyreactivity
17 | QVQLVDSGGGLVQAGGSLRLSCAASGRTIHGYAMGWYRQAPGKERELVAAINWRGGSTYYADSVKGRFTISRDNAKNTVYLQMNSLKPEDTAVYYCNKRQYSARVSRSYDYWGQGTQVTVSS | high polyreactivity
18 | QVQLVDSGGGLVQAGGSLRLSCAASGRTLYLYAMGWYRQAPGKKRELVAGISWSGTSTYYADSVKGRFTISRDNSKNTVYLQMNSLKPEDTAFYYCAADRLYVRYGYWGQGTQVTVSS | low polyreactivity
19 | QVQLVDSGGGLVQAGGSLRLSCAASGSIFFIYAMGWYRQATGKERELVATITSGGSTYYADSVKGRFTISRDNAKNTVYLQMNSLKPEDTAVYYCAKYFVYVGYGRYDYWGQCTQVTVSS | low polyreactivity
20 | QVQLVDSGGGLVQAGGSLRLSCAASGSIFKYYAMGWSRQAPGKERELVAAISWSGDSTYYADSVKGRFTISRDNAKNTVYLQMNSLKPEDTAVYYCAAVYPYQVPDYDYWGQGSQVTVSS | low polyreactivity
21 | QVQLVDSGGGLVQAGGSLRLSCAASGSIFLGYAMGWYRQAPGKVREFVAAITWSGGSTYYADSVKGRFTISRDIAKNTVYLQMNSLKQEDTAVYYCAVEIWIPTWYGLSGEYDYWGQGTQVTVSS | low polyreactivity
22 | QVQLVDSGGGLVQAGGSLRLSCAASGSIFNRYVMGWYRQAPGKERELVAAISRRGGNTYYADSVKGRFTISRDNAKNTVYLQMNSLKPEDTAVYYCAAAYRSYKQFYSYGYEYWGQGTQVTVSS | high polyreactivity
